Source: patent US6531296B1, “Nuclear tyrosine kinase Rak” (The University of North Carolina at Chapel Hill, priority 1995, dated 2003)
Read-outs that look alike come from different tables or passages of the source.

T1: pRb (Homo sapiens, UniProt P06400)
T1 construct: incubated with cell lysates from SK-BR-3 breast cancer cells; endogenous in cells; host or cells: SK-BR-3
T1 sequence (P06400 1-928): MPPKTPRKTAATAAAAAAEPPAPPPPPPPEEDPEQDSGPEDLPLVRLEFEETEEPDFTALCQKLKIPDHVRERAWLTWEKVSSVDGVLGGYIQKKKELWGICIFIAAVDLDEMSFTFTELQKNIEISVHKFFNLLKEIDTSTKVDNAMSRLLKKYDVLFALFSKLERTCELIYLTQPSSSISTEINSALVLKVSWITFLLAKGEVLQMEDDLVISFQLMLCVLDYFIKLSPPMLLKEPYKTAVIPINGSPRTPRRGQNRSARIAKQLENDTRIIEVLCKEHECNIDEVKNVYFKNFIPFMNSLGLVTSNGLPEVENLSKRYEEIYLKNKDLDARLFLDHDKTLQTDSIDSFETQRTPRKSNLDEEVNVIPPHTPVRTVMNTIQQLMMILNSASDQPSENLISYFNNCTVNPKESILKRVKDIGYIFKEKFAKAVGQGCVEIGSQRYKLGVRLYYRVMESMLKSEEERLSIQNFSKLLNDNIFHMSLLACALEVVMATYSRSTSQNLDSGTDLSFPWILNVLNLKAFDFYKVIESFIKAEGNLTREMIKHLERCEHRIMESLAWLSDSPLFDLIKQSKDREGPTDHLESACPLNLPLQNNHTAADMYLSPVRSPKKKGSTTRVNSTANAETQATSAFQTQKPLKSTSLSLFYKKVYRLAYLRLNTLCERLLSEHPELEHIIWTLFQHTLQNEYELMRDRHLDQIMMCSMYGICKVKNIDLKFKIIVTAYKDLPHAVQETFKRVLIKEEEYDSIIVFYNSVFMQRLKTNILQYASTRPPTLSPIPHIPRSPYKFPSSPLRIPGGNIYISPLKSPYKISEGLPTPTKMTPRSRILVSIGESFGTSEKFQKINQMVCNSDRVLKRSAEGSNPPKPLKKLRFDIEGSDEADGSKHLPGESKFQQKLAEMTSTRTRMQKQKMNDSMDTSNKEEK


Key:
Cdk4 = biological target: T2, Cdk4 (Homo sapiens, UniProt P11802); assay: Affinity precipitation from BT474 lysate with Rak N-terminal GST fusion protein; format: binding; details: BT474 cell lysate
T2 construct: endogenous in cells; host or cells: BT474
Protocol: (§1) For affinity precipitations, 250 ug of cell lysate was pre-cleared once with 25 ul of glutathione-sepharose beads (Pharmacia) then once with 25 ul of the same beads containing 2 ug/ml Glutathione S-transferase. The lysate was then incubated with 25 ul of GST-RakNT bound to glutathione-sepharose, in a total volume of 500 ul of NP-40 lysis buffer, for 3 hours at 4° C. The beads were then washed three times in NP-40 Lysis Buffer and the bound proteins were eluted with SDS-PAGE sample loading buffer. pRb binding was assessed by Western blot analysis with the G3-245 antibody at 1 ug/ml.
(§2) Because the N-terminus is frequently responsible for protein-protein interactions in Src-related kinases, the proteins that bind to this region were characterized. The N-terminal 110 amino acids of Rak were expressed as a bacterial fusion protein with Glutathione S-transferase, and were incubated with cell lysates from BT474 breast cancer cells. In this assay, binding of RAK to the cyclin-dependent kinases Cdc2 and Cdk4 was detected, but binding to Cdk5, Cdk6, or Cdk7 was not detected (data not shown).

CDC2 [1] = biological target: T3, CDC2 (Homo sapiens, UniProt P06493); assay: In vitro kinase assay of immunoprecipitated CDC2 with Histone H1 as exogenous substrate; format: biochemical; parameters: incubated with immunoprecipitated CDC2; endogenous in cells
Protocol: The 110 N-terminal amino acids of Rak were produced as a GST fusion protein (RAKNT:GST) and incubated with immunoprecipitated CDC2, and subjected to an in vitro kinase assay with Histone H1 added as an exogenous substrate, and analyzed by SDS-PAGE. […] This fusion protein was incubated with immunoprecipitated CDC2, and subjected to an in vitro kinase assay with Histone H1 added as an exogenous substrate, and analyzed by SDS-PAGE.
The CDC2 binding domain of RAK appears to be between amino acids 86-110. Since the binding of RAK to CDC2 is exceptionally strong, the biological function of this interaction was explored.

pRb = biological target: T1, pRb; assay: Affinity precipitation from SK-BR-3 lysate with GST-RakNT, Western blot for pRb; format: binding; details: SK-BR-3 cell lysate, GST alone as control
Protocol: Affinity Precipitations. DNA fragments encoding the amino terminal region of Rak were prepared using the polymerase chain reaction with Pyrococcus furiosus DNA polymerase (Stratagene), and cloned into the pGEX-4T plasmid (Pharmacia). Rb fusion proteins encoding amino acids 379-928 (RbABC, containing the A/B pocket region and the COOH-terminal domain) and 780-928 (RbC for COOH terminal domain only), were prepared similarly. The GST fusion proteins were induced and purified according to the manufacturer's instructions, and were analyzed by SDS-PAGE to ensure that an equal amount of protein was used for the affinity precipitation procedure.
For affinity precipitations, 250 ug of cell lysate was pre-cleared once with 25 ul of glutathione-sepharose beads (Pharmacia) then once with 25 ul of the same beads containing 2 ug/ml Glutathione S-transferase. […]
Results and Discussion: To test whether Rak and pRb physically interact, the first 110 amino acids of Rak (first 110 amino acids of SEQ ID NO:2), where the predicted interacting peptides reside were prepared as a bacterial fusion protein with the Glutathione-S transferase gene (Rak-NT:GST), and incubated with cell lysates from SK-BR-3 breast cancer cells, and bound proteins were analyzed by Western blotting. […]

Cdk5 = biological target: T4, Cdk5 (Homo sapiens, UniProt Q00535); assay: Affinity precipitation from BT474 lysate with Rak N-terminal GST fusion protein; format: binding; details: BT474 cell lysate
T4 construct: endogenous in cells; host or cells: BT474
Protocol: as §1, §2

Cdk6 = biological target: T5, Cdk6 (Homo sapiens, UniProt Q00534); assay: as above; format: binding; details: BT474 cell lysate
T5 construct: endogenous in cells; host or cells: BT474
Protocol: as §1, §2

Cdk7 = biological target: T6, Cdk7 (Homo sapiens, UniProt P50613); assay: as above; format: binding; details: BT474 cell lysate
T6 construct: endogenous in cells; host or cells: BT474
Protocol: as §1, §2

GAP-associated p62 = biological target: T7, GAP-associated p62 (Homo sapiens, UniProt Q07666); assay: Affinity precipitation from SK-BR-3 lysate with GST-RakNT; format: binding; details: SK-BR-3 cell lysate
T7 construct: incubated with cell lysates from SK-BR-3 breast cancer cells; endogenous in cells; host or cells: SK-BR-3
Protocol: as §1
(§3) Results and Discussion: To test whether Rak and pRb physically interact, the first 110 amino acids of Rak (first 110 amino acids of SEQ ID NO:2), where the predicted interacting peptides reside were prepared as a bacterial fusion protein with the Glutathione-S transferase gene (Rak-NT:GST), and incubated with cell lysates from SK-BR-3 breast cancer cells, and bound proteins were analyzed by Western blotting. Glutathione-S transferase alone was used as the control. […] In contrast, binding of Rak to proteins that interact with the SH3 domains of other members of the Src family, such as GAP-associated p62 or Shc, was not found (data not shown).

Shc = assay: as above; format: binding, human; details: SK-BR-3 cell lysate
Protocol: as §1, §3

CDC2 [2] = biological target: T3, CDC2; assay: Affinity precipitation from BT474 lysate with Rak N-terminal GST fusion protein; format: binding; parameters: endogenous in cells; host or cells: BT474; details: BT474 cell lysate
Protocol: as §1, §2

T3 sequence (P06493 whole entry, the tested form may be a part): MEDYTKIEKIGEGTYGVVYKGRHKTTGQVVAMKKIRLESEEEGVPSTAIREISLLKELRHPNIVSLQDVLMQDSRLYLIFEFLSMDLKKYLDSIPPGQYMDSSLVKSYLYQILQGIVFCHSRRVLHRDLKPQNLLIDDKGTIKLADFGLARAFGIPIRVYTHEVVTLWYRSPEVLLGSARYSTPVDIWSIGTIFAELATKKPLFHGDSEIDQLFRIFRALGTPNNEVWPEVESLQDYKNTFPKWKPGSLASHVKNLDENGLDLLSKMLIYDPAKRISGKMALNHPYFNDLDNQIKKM
T2 sequence (P11802 whole entry, the tested form may be a part): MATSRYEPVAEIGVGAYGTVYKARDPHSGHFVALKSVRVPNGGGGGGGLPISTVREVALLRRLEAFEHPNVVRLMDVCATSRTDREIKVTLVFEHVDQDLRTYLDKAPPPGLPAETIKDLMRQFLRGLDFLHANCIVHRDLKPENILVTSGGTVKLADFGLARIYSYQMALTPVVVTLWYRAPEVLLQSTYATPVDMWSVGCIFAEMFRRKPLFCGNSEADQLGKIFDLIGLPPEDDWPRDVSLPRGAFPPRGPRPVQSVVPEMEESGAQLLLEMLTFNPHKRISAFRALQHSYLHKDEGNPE
T7 sequence (Q07666 whole entry): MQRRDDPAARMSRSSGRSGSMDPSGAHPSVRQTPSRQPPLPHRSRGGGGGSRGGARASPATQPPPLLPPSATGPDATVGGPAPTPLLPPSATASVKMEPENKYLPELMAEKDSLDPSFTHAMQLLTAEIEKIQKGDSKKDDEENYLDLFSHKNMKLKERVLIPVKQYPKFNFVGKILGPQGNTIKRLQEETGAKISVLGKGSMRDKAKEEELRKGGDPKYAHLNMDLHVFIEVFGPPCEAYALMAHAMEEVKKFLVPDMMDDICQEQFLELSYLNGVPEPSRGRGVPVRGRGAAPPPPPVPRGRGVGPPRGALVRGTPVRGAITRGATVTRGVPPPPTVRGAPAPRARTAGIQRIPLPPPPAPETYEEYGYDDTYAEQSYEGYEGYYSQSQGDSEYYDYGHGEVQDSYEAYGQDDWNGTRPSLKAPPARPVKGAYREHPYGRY
T5 sequence (Q00534 whole entry): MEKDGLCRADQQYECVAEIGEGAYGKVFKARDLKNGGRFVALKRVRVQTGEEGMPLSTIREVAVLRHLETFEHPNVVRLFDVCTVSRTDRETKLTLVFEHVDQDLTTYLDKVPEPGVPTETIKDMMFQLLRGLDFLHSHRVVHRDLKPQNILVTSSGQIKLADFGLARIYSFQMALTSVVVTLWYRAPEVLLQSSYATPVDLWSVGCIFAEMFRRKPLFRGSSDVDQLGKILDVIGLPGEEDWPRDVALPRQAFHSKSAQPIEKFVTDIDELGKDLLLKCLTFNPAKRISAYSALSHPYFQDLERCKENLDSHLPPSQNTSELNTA
Sequence of Shc (P29353 156-583 limits assumed): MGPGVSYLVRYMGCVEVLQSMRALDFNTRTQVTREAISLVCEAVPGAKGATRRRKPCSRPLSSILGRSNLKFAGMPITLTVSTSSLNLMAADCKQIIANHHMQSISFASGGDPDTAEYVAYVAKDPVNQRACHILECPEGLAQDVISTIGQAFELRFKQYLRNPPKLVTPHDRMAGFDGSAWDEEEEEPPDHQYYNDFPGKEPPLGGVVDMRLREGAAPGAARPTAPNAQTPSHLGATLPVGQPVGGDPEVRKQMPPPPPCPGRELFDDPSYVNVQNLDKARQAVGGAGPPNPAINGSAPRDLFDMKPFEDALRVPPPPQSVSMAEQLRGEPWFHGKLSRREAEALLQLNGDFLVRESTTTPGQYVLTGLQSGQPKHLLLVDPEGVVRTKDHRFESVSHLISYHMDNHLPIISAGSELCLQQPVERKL
T4 sequence (Q00535 whole entry, the tested form may be a part): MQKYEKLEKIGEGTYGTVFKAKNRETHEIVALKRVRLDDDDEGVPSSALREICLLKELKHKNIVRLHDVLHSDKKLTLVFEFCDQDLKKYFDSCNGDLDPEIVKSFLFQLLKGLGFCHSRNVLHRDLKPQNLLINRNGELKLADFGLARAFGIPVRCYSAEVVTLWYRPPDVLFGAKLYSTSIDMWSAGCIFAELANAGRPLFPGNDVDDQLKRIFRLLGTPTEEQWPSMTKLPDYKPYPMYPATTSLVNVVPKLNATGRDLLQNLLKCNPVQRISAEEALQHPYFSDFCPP
T6 sequence (P50613 whole entry): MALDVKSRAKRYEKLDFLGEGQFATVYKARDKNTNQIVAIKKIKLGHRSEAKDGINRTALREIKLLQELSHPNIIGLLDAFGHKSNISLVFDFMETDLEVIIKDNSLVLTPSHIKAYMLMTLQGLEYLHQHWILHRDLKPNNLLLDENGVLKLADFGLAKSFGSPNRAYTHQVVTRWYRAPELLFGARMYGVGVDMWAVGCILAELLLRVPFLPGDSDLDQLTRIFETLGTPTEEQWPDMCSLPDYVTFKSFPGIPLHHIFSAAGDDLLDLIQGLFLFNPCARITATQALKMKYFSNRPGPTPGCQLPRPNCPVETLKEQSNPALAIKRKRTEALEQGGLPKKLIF

Row | binding to Cdk4 (Cdk4) | pRb binding (pRb) | binding to Cdk5 (Cdk5) | binding to Cdk6 (Cdk6) | binding to Cdk7 (Cdk7) | binding to GAP-associated p62 (GAP-associated p62) | binding to Shc (Shc) | binding to Cdc2 (CDC2 [2]) | inhibition of CDC2 histone H1 phosphorylation activity (CDC2 [1]; listed as RAK-SH3:GST) | Molecule | inhibition of CDC2 histone H1 phosphorylation activity (CDC2 [1]) | inhibition of CDC2 histone H1 phosphorylation activity (CDC2 [1]; listed as RakNT fusion protein)
1 | did not affect binding | – | – | – | – | – | – | – | – | RAKΔ86:GST: RakNT GST fusion protein with amino acids 86-110 (CDC2 binding site) deleted (protein, UniProt P42685 1-85, looked up, fragment, GST fusion) MSNICQRLWEYLEPYLPCLSTEADKSTVIENPGALCSPQSQRHGHYFVALFDYQARTAEDLSFRAGDKLQVLDTLHEGWWFARHL | greatly diminished CDC2 inhibitory activity | –
2 | detected | bound | not detected | not detected | not detected | not found | not found | detected | able to block CDC2 histone H1 activity | Rak-NT:GST: first 110 amino acids of Rak (SEQ ID NO:2) as bacterial fusion protein with Glutathione-S transferase (protein, left off: a dimerising Fc or GST; large carriers; small tags and cut ends) MSNICQRLWEYLEPYLPCLSTEADKSTVIENPGALCSPQSQRHGHYFVALFDYQARTAEDLSFRAGDKLQVLDTLHEGWWFARHLEKRRDGSSQQLQGYIPSNYVAEDRS | – | reduction of CDC2 histone H1 phosphorylation activity
